The chains are these.
B1: E3 ubiquitin-protein ligase NHLRC1 (Homo sapiens), Q6VVB1 (parent)
chain: MAAEASESGPALHELMREAEISLLECKVCFEKFGHRQQRRPRNLSCGHVVCLACVAALAHPRTLALECPFCRRACRGCDTSDCLPVLHLIELLGSALRQSPAAHRAAPSAPGALTCHHTFGGWGTLVNPTGLALCPKTGRVVVVHDGRRRVKIFDSGGGCAHQFGEKGDAAQDIRYPVDVTITNDCHVVVTDAGDRSIKVFDFFGQIKLVIGGQFSLPWGVETTPQNGIVVTDAEAGSLHLLDVDFAEGVLRRTERLQAHLCNPRGVAVSWLTGAIAVLEHPLALGTGVCSTRVKVFSSSMQLVGQVDTFGLSLYFPSKITASAVTFDHQGNVIVADTSGPAILCLGKPEEFPVPKPMVTHGLSHPVALTFTKENSLLVLDTASHSIKVYKVDWG
partner: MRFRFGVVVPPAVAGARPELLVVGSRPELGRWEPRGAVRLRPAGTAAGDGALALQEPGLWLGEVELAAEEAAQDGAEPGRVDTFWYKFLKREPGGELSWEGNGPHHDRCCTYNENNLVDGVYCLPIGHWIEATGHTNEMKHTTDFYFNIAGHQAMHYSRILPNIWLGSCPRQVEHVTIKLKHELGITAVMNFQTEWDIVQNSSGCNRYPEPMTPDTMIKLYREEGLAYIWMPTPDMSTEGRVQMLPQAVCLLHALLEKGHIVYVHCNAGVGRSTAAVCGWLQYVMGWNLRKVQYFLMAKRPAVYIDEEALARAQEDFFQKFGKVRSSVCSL

Variants of B1 are the subject of one test. Particulars: with epm2a_human EPM2A.
Turning to MAAEASESGPALHELMREAEISLLECKVCFEKFGHRQQRRPRNLSCGHVVCLACVAALAHPRTLALECPFCRRACRGCDTSDCLPVLHLIELLGSALRQSPAAHRAAPSAPGALTCHHTFGGWGTLVNPTGLALCPKTGRVVVVHDGRRRVKIFDSGGGCAHQFGEKGDAAQDIRYPVDVTITNDCHVVVTDAGDRSIKVFDFFGQIKLVIGGQFSLPWGVETTPQNGIVVTDAEAGSLHLLDVDFAEGVLRRTERLQAHLCNPRGVAVSWLTGAIAVLKHPLALGTGVCSTRVKVFSSSMQLVGQVDTFGLSLYFPSKITASAVTFDHQGNVIVADTSGPAILCLGKPEEFPVPKPMVTHGLSHPVALTFTKENSLLVLDTASHSIKVYKVDWG [E280K], the “effect of a mutation on the interaction” value is given as “disrupting interaction”.

In the case of MAAEASESGPALHELMREAEISLLECKVCFEKFGHRQQRRPRNLSCGHVVCLACVAALAHPRTLALECPFCRRACRGCDTSDCLPVLHLIELLGSALRQSPAAHRAAPSAPGALTCHHTFGGWGTLVNPTGLALCPKTGRVVVVHDGRRRVKIFDSGGGCAHQFGEKGDAAQDIRYPVDVTITNDCHVVVTDAGDRSIKVFDFFGQIKLVIGGQFSLPWGVETTPQNGIVVTDAEAGSLHLLDVDFAEGVLRRTERLQAHLCNPRGVAVSWLTGAIAVLEHPLALGTGVCSTRVKVFSSSMPLVGQVDTFGLSLYFPSKITASAVTFDHQGNVIVADTSGPAILCLGKPEEFPVPKPMVTHGLSHPVALTFTKENSLLVLDTASHSIKVYKVDWG [Q302P], the “effect of a mutation on the interaction” value was “disrupting interaction”.

The variants in the next test derive from B1. Particulars: with epm2a_human EPM2A. The source holds these as a separate data set.
In the case of MAAEASESGPALHELMREAEISLLECKVCFEKFGHRQQRRPRNLSCGHVVCLACVAALAHPRTLALECPFCRRACRGCDTSDCLPVLHLIELLGSALRQSPAAHRAAPSAPGALTCHHTFGGWGTLVNPTGLALCPKTGRVVVVHDGRRRVKIFDSGGGCAHQFGEKGDAAQDIRYPVDVTITNDCHVVVTDAGDRSIKVFDFFGQIKLVIGGQFSLPWGVETTPQNGIVVTDAEAGSLHLLDVDFAEGVLRRTERLQAHLCNPRGVAVSWLTGAIAVLKHPLALGTGVCSTRVKVFSSSMQLVGQVDTFGLSLYFPSKITASAVTFDHQGNVIVADTSGPAILCLGKPEEFPVPKPMVTHGLSHPVALTFTKENSLLVLDTASHSIKVYKVDWG [E280K], the “effect of a mutation on the interaction” value is given as “decreasing interaction”.

MAAEASESGPALHELMREAEISLLECKVCFEKFGHRQQRRPRNLSCGHVVCLACVAALAHPRTLALECPFCRRACRGCDTSDCLPVLHLIELLGSALRQSPAAHRAAPSAPGALTCHHTFGGWGTLVNPTGLALCPKTGRVVVVHDGRRRVKIFDSGGGCAHQFGEKGDAAQDIRYPVDVTITNDCHVVVTDAGDRSIKVFDFFGQIKLVIGGQFSLPWGVETTPQNGIVVTDAEAGSLHLLDVDFAEGVLRRTERLQAHLCNPRGVAVSWLTGAIAVLEHPLALGTGVCSTRVKVFSSSMPLVGQVDTFGLSLYFPSKITASAVTFDHQGNVIVADTSGPAILCLGKPEEFPVPKPMVTHGLSHPVALTFTKENSLLVLDTASHSIKVYKVDWG [Q302P]: the “effect of a mutation on the interaction” value is “decreasing interaction”.

Regarding MAAEASESGPALHELMREAEISLLESKVCFEKFGHRQQRRPRNLSCGHVVCLACVAALAHPRTLALECPFCRRACRGCDTSDCLPVLHLIELLGSALRQSPAAHRAAPSAPGALTCHHTFGGWGTLVNPTGLALCPKTGRVVVVHDGRRRVKIFDSGGGCAHQFGEKGDAAQDIRYPVDVTITNDCHVVVTDAGDRSIKVFDFFGQIKLVIGGQFSLPWGVETTPQNGIVVTDAEAGSLHLLDVDFAEGVLRRTERLQAHLCNPRGVAVSWLTGAIAVLEHPLALGTGVCSTRVKVFSSSMQLVGQVDTFGLSLYFPSKITASAVTFDHQGNVIVADTSGPAILCLGKPEEFPVPKPMVTHGLSHPVALTFTKENSLLVLDTASHSIKVYKVDWG [C26S], the “effect of a mutation on the interaction” value is recorded as “decreasing interaction”.

For the variant MAAEASESGPALHELMREAEISLLECKVCFEKSGHRQQRRPRNLSCGHVVCLACVAALAHPRTLALECPFCRRACRGCDTSDCLPVLHLIELLGSALRQSPAAHRAAPSAPGALTCHHTFGGWGTLVNPTGLALCPKTGRVVVVHDGRRRVKIFDSGGGCAHQFGEKGDAAQDIRYPVDVTITNDCHVVVTDAGDRSIKVFDFFGQIKLVIGGQFSLPWGVETTPQNGIVVTDAEAGSLHLLDVDFAEGVLRRTERLQAHLCNPRGVAVSWLTGAIAVLEHPLALGTGVCSTRVKVFSSSMQLVGQVDTFGLSLYFPSKITASAVTFDHQGNVIVADTSGPAILCLGKPEEFPVPKPMVTHGLSHPVALTFTKENSLLVLDTASHSIKVYKVDWG [F33S], the “effect of a mutation on the interaction” value is reported as “decreasing interaction”.

(Values after IntAct's records for PubMed 15930137.)
